Measured values taken from patent publication US12673985B2, “Method for the treatment or prophylaxis of cancer by targeting the extracellular portion of keratin 14 (KRT14) residing on cancer cells” (Hudson Institute of Medical Research, priority 2019, dated 2026).

B1: rK14: exogenously added, full-length recombinant KRT14 protein (protein)
chain: MTTCSRQFTSSSSMKGSCGIGGGIGGGSSRISSVLAGGSCRAPSTYGGGLSVSSSRFSSGGACGLGGGYGGGFSSSSSSFGSGFGGGYGGGLGAGLGGGFGGGFAGGDGLLVGSEKVTMQNLNDRLASYLDKVRALEEANADLEVKIRDWYQRQRPAEIKDYSPYFKTIEDLRNKILTATVDNANVLLQIDNARLAADDFRTKYETELNLRMSVEADINGLRRVLDELTLARADLEMQIESLKEELAYLKKNHEEEMNALRGQVGGDVNVEMDAAPGVDLSRILNEMRDQYEKMAEKNRKDAEEWFFTKTEELNREVATNSELVQSGKSEISELRRTMQNLEIELQSQLSMKASLENSLEETKGRYCMQLAQIQEMIGSVEEQLAQLRCEMEQQNQEYKILLDVKTRLEQEIATYRRLLEGEDAHLSSSQFSSGSQSSRDVTSSSRQIRTKVMDVHDGKVVSTHEQVLRTKN

Legend:
[1] = tested on: OVCAR4 ovarian cancer cells; assay: Real time cell analysis (RTCA) of proliferation with cisplatin and mAb AN-17; assay type: cell-based, human
Method: Real time cell analysis (RTCA) was conducted as previously described (PMID: 31443478; Bilandzic et al., Cancers (Basel). 2019; 11(9), E1228) using an xCELLigence RTCA SP 96-well instrument (ACEA Biosciences). Cell lines were synchronized in G0 by overnight incubation in serum-free media and were seeded at 0.5×10^3 cells/0.15 ml/per well. […] Impedance readings were taken every 15 minutes for the experimental duration. mAb AN-17 comprises the heavy chain variable region of SEQ ID NO:3 and the light chain variable region of SEQ ID NO:5, encoded by the nucleic acid sequences of SEQ ID NOs:2 and 4, respectively (see also FIGS. 21 and 22A-22B).

ovarian cancer cells = assay: Real-time in vitro invasion assay (xCELLigence RTCA) with anti-KRT14 antibodies, rK14 and competing peptides; assay type: cell-based, human; conditions: for restoration of invasive capacity in competition with anti N-terminal KRT14 antibody: competition assay (FIG. 4B, 5B)
Method: xCELLigence Real Time Cell Analyses (RTCA). Real time cell analyses (RTCA) were conducted using an xCELLigence RTCA SP 96-well instrument (ACEA Biosciences). Cell lines were synchronized in Go phase by overnight incubation in serum-free media prior to commencement. For proliferation assays, cells were seeded at 0.5×10^3 cells/0.14 ml/per well (as outlined in the experimental text), and impedance readings taken every 5 minutes for 8 hours (in order to monitor cell adhesion), and subsequently every 15 minutes for 24 hours (to monitor cell proliferation). For invasion assays the upper chamber of a CIM-16 well plate was coated with Matrigel matrix (1:10 in SFM; BD Biosciences, San Jose, CA). Cells were seeded into the upper chamber (as above), with media+/−10% v/v FBS added to the lower chamber. All assays were performed in duplicate or triplicate, with at least three independent experiments.
Using flow cytometry and immunocytochemical staining of intact cells, it was observed that the N terminus of KRT14 is exposed at the cell surface (FIGS. 4A-4B). Consistent with other studies (Papafotiou et al. (2016) supra; Rock et al. (2009) supra), KRT14+ cells represented only a subset of tumor cell population (FIG. 4A). […] Thus, loss of invasive capacity was directly due to binding of the antibody of KRT14. Moreover, this effect is mediated by antibody binding to the N-terminus of KRT14; and the N-terminus was exposed on the external side of cells, accessible to antibody binding.
Antigenicity and hydrophobicity plots were used to examine the first 200 amino acids of KRT14 in silico (FIG. 5A). Five potentially antigenic regions were predicted, and six peptides encompassing to these regions were synthesized for use in further competition assays. Blockade of the N-terminal antibody by peptides #4 and #5 restored invasion (FIG. 5B) and migration (FIG. 5C) of ovarian cancer cells in vitro. […] Based on antibody and peptide competition assays, the surface-exposed region of the KRT14 protein was defined within the amino sequence NH2-[…] (SEQ ID NO:1). […]

Molecule	cell viability and proliferation ([1]; cisplatin alone at 1.25 μg/ml)	cell viability and proliferation ([1]; cisplatin alone at 15 μg/ml or 20 μg/ml)	invasion by ovarian cancer cells in vitro (ovarian cancer cells; antibody or rK14 added exogenously (FIG. 4B))	restoration of invasive capacity in competition with anti N-terminal KRT14 antibody (ovarian cancer cells)	restoration of invasive capacity in competition with anti N-terminal KRT14 antibody (ovarian cancer cells; listed as recombinant KRT14 protein)
N.N.[Cl][Pt][Cl] [cisplatin, reference compound]	sub-lethal and cells continued to proliferate	complete cell death			
B1			had no effect alone	successfully competed with a N-term antibody to restore invasive capacity	could compete for antibody binding, and resorted invasion in vitro
